Measurements taken from patent US20260248940A1, “Antibody-Drug Conjugates and Uses Thereof” (Vivasor, Inc., priority 2023, published 2026).

How the values were obtained:
[1] = system: Hs700T (B7-H3+) cells; assay: Cell viability assay (CellTiter-Glo 2.0, 120-hour) in Hs700T cells; format: cell-based; conditions: Homo sapiens, Hs 700T, Table 4A, B7-H3 positive, 120-hour treatment
[2] = system: Calu6 (B7-H3+) cells; assay: Cell viability assay (CellTiter-Glo 2.0, 120-hour) in Calu6 cells; format: cell-based; conditions: Homo sapiens, Calu-6; Table 4A; Calu6, B7-H3 positive; 120-hour treatment
[3] = system: U2OS (B7-H3+) cells; assay: Cell viability assay (CellTiter-Glo 2.0, 120-hour) in U2OS cells; format: cell-based; conditions: Homo sapiens, Table 4A, B7-H3 positive, 120-hour treatment
[4] = system: PA-1 (B7-H3+) cells; assay: Cell viability assay (CellTiter-Glo 2.0, 120-hour) in PA-1 cells; format: cell-based; conditions: Homo sapiens; Table 4A; PA-1, B7-H3 positive; 120-hour treatment
[5] = system: NCI-H929 (B7-H3−) cells; assay: Cell viability assay (CellTiter-Glo 2.0, 120-hour) in NCI-H929 cells; format: cell-based; conditions: Homo sapiens; Table 4A; NCI-H929, B7-H3 negative; 120-hour treatment
[6] = target: T1, human B7-H3 protein (human, UniProt Q5ZPR3 29-534); assay: flow cytometry on A549 cells, PE-labelled goat anti-human secondary antibody, geometric mean fluorescence
T1 construct: Endogenous B7-H3 on human cancer cell lines; also called CD276; B7-H3 receptor
T1 sequence: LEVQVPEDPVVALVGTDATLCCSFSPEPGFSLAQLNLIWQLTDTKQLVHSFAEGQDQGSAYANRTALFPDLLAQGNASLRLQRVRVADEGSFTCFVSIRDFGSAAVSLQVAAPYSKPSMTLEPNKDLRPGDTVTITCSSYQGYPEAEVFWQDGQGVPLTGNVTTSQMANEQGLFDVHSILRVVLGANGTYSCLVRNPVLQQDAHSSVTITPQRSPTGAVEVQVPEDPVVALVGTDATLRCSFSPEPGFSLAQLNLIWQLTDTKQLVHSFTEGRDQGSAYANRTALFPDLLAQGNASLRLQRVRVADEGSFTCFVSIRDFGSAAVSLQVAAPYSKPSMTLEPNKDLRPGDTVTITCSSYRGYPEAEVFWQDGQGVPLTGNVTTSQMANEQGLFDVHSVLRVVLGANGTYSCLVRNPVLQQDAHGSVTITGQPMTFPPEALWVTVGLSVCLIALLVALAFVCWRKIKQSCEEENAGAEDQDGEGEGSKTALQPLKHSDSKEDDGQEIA
Procedure: (§1) B7-H3 binding: Tumor cell cultures were harvested by non-enzymatic cell dissociation and plated in RPMI1640 supplemented with 10% fetal bovine serum (FBS) in a 96 well plate. A dilution curve of B7H3 antibody was prepared as a 2× solution and added to each well and incubated at 4C for 1 hour. The cells were washed with PBS+2% FBS+5 mM EDTA (FACS Buffer) before incubation with R-Phycoerythrin labeled goat anti-human secondary antibody for 1 hour at 4C. Cells were washed with FACS buffer and analyzed by flow cytometry.

[7] = target: T1, human B7-H3 protein; assay: flow cytometry on FaDu cells, PE-labelled goat anti-human secondary antibody, geometric mean fluorescence
Procedure: as §1

[8] = target: T1, human B7-H3 protein; assay: flow cytometry on U2OS cells, PE-labelled goat anti-human secondary antibody, geometric mean fluorescence
Procedure: as §1

[9] = target: T1, human B7-H3 protein; assay: flow cytometry on Hs700T cells, PE-labelled goat anti-human secondary antibody, geometric mean fluorescence
Procedure: as §1

[10] = target: T1, human B7-H3 protein; assay: flow cytometry on HCT-116 cells, PE-labelled goat anti-human secondary antibody, geometric mean fluorescence
Procedure: as §1

[11] = target: T1, human B7-H3 protein; assay: flow cytometry on SkNBE(2) cells, PE-labelled goat anti-human secondary antibody, geometric mean fluorescence
Procedure: as §1

[12] = target: T1, human B7-H3 protein; assay: flow cytometry on MDA-MB-231 cells, PE-labelled goat anti-human secondary antibody, geometric mean fluorescence
Procedure: as §1

[13] = system: B7-H3-expressing renal cell and bladder carcinoma; conditions: Loo et al., 2012; cited from earlier work
[14] = cynomolgus monkeys; Loo et al., 2012; cited from earlier work

For `CC[C@@]1(O)C(=O)OCc2c1cc1n(c2=O)Cc2c-1nc1cc(F)c(C)c3c1c2[C@@H](NC(=O)CO)CC3` [Dxd], the EC50 [1] was 43.9 nM, the EC50 [2] was 7 nM and the EC50 [3] was 337 nM. For the same molecule, the EC50 [4] was 2 nM and the EC50 [5] was 4.7 nM.

B1: anti-B7-H3 antibody (B7-H3 VA clone) (antibody, V domains shown)
VH: QVQLVQSGAEVKKPGASVKVSCKASGYTFTDSYMHWVRQAPGQGLEWMGWISPRTGGTDYAQKFQGRVTMTRDTSISTAYMELSRLRSDDTAVYYCARGSSRGNDYWGQGTLVTVSS
VL: QSVLTQPASVSGSPGQSITISCTGTGSDVGGYNYVSWYQQHPGKAPKLIIYDVTKRPSGFSNRFSGSKSGNTASLTISGLQAEDEADYYCSSYTSRRTYVFGTGTKLTVL
notes: IgG/IgG1 appears only as an embodiment; It was detected with a goat anti-human secondary antibody; also called anti-B7H3 VA clone; Sorrento's VA clone
For B1, the Kd [6] was 0.192 nM, the “EC50 (read off the curve)” value [7] was about 0.2 nM and the Kd [7] was 0.2 nM. The “EC50 (read off the curve)” value [8] was about 0.3 nM, the Kd [8] was 0.257 nM and the “EC50 (read off the curve)” value [9] was about 0.5 nM. For the same molecule, the Kd [9] was 0.485 nM, the Kd [10] was 0.238 nM and the Kd [11] was 0.0968 nM. The Kd [12] was 0.168 nM.

B2: Enoblituzumab (antibody, chains of the INN, looked up)
heavy: EVQLVESGGGLVQPGGSLRLSCAASGFTFSSFGMHWVRQAPGKGLEWVAYISSDSSAIYYADTVKGRFTISRDNAKNSLYLQMNSLRDEDTAVYYCGRGRENIYYGSRLDYWGQGTTVTVSSASTKGPSVFPLAPSSKSTSGGTAALGCLVKDYFPEPVTVSWNSGALTSGVHTFPAVLQSSGLYSLSSVVTVPSSSLGTQTYICNVNHKPSNTKVDKRVEPKSCDKTHTCPPCPAPELVGGPSVFLLPPKPKDTLMISRTPEVTCVVVDVSHEDPEVKFNWYVDGVEVHNAKTKPPEEQYNSTLRVVSVLTVLHQDWLNGKEYKCKVSNKALPAPIEKTISKAKGQPREPQVYTLPPSREEMTKNQVSLTCLVKGFYPSDIAVEWESNGQPENNYKTTPLVLDSDGSFFLYSKLTVDKSRWQQGNVFSCSVMHEALHNHYTQKSLSLSPG
light: DIQLTQSPSFLSASVGDRVTITCKASQNVDTNVAWYQQKPGKAPKALIYSASYRYSGVPSRFSGSGSGTDFTLTISSLQPEDFATYYCQQYNNYPFTFGQGTKLEIKRTVAAPSVFIFPPSDEQLKSGTASVVCLLNNFYPREAKVQWKVDNALQSGNSQESVTEQDSKDSTYSLSSTLTLSKADYEKHKVYACEVTHQGLSSPVTKSFNRGEC
notes: "Enoblituzumab (MGA271; from Macrogenics), a humanized mAb targeting B7-H3"
For B2, the “antitumor activity in xenograft models” value [13] is listed as “potent antitumor activity” and the “safety findings in toxicology studies” value [14] is listed as “no significant safety findings”.
